Measured values taken from the DeepSol protein solubility set.

Assay: soluble on expression in E. coli; label from the status in PepcDB or PDB records
With “MSLAARRALHFVFKVGNRFQTARFYRDVLGMKVLRHEEFEEGCKAACNGPYDGKWSKTMVGFGPEDDHFVAELTYNYGVGDYKLGNDFMGITLASSQAVSNARKLEWPLTEVAEGVFETEAPGGYKFYLQNRSLPQSDPVLKVTLAVSDLQKSLNYWCNLLGMKIYEKDEEKQRALLGYADNQCKLELQGVKGGVDHAAAFGRIAFSCPQKELPDLEDLMKRENQKILTPLVSLDTPGKATVQVVILADPDGHEICFVGDEAFREGHHHHHH” the “soluble on expression in E. coli” value was “soluble”.
In the case of “MSLAAVPAPDPGPDAGAIWHYGDPLGEQRAGQADAVLVDRSHRAVLTLDGGDRQTWLHSISTQHVSDLPEGASTQNLSLDGQGRVEDHWIQTELGGTTYLDTEPWRGEPLLAYLRKMVFWSMVTPRAADMAVLSLLGPRLAEERVLDALGLDVLPAEWLAVPLAGGGIVRRMPDGLAGQIELDVVVKRGDRADWQRRLTQAGVRPAGIWAYEAHRVAHRVPARRPRLGVDTDERTIPHEVGWIGGPGAGAVHLNKGCYRGQETVARVHNLGRPPRMLVLLHLDESVQRPSTGDAVLAGGRTVGRLGTVVEHVELGPVALALLKRGLPGDTALVTGPEAEVAAVIDVDSLPPADDVGAGRRAVERLRGGIREGHHHHHH”, the “soluble on expression in E. coli” value is reported as “soluble”.
With “MSLAAVQVVGSWPSVQPREAPREAIPERGNGFRLLSARLCALRPDDSSSARTEIHLLFDQLISENYSEGSGVAPEDVSALLVQACRLVPLNQNHLVSKVSQLIHHLLNRLQVIVDEQHLDFLLAYTISAIHQCSSWTHREILQALAALVYCNGSKCQKYLPELLGNTGLLMKLSDLAQSDPEVRRAAVHCMANLCLSVPGQPYLEEPYQNVCFQAFLTILQSPKSSDMDDITFCMLLQNALKGIQSLLNGGRMKLTQTDELGALLAVLKKFMFHGLPGLNIEMPTVLYPTPLPQYDGRTPIKEGHHHHHH” the “soluble on expression in E. coli” value was “not soluble”.
With “MSLADLQKNFQTSFRDAMASCAAGVHVITTDGAAGRYGITMTAVAPVTDEPPTVMLCINRSARIIPILSENGSLCINTLADEHQDVAEHFAGLTGLSPEERFAYHIWHRGKTGQLEIEGALAHLHGHIVGKHEIGTHFVFYVRLDEIKNCGCKRPALLYFRRQFRFLDEGGSHHHHHH” the “soluble on expression in E. coli” value was “soluble”.
In the case of “MSLADLTSLSIEHLRSPRLYTHRLILRPWLVQDRARFAELNADPLVMEFFPSCLDRAQSDALLRRIDAHFAEHGFGWWALQVKGGDPFIGYVGLEVVDFDAPFVPAVAIGWRLAAEHWAEGFAHEAAEAALSYAFDTLGLDQVVAFTVPANENSLGLMERLGMHRDPTDDFEHPDLPPGHRLRHHVLYRLTREDWLRREGGSHHHHHH”, the “soluble on expression in E. coli” value is reported as “soluble”.
In the case of “MSLADPDGGERSRRAARAASLSSSSRPTSVSAKQPCRVKFICRVLRPVVQGFLTSLGYRAAIGRAPSARQLRDYLLVPEVTRLHAENYGFYGRRKMHALMRRQGWVIGRDQTERLMRLAGVRGVRKSKRVLTTHSDKTTVLPADLVNRRFTAPAPRRLWVCDVTYVATWSGFAYVAFVTDVYSRRIVGWNVAATLRSEILPMQALDMAAWGAGGDLTSLIHHADHGSNSEGHHHHHH”, the “soluble on expression in E. coli” value is reported as “soluble”.
For “MSLADSSYYDEDYRPQYHFTPEANWMNDPNGMVYYAGEYHLFYQYHPYGLQWGPMHWGHAVSKDLVTWEHLPVALYPDEKGTIFSGSAVVDKNNTSGFQTGKEKPLVAIYTQDREGHQVQSIAYSNDKGRTWTKYAGNPVIPNPGKKDFRDPKVFWYEKEKKWVMVLAAGDRILIYTSKNLKQWTYASEFGQDQGSHGGVWECPDLFELPVDGNPNQKKWVMQVSVGNGAVSGGSGMQYFVGDFDGTHFKNENPPNKVLWTDYGRDFYAAVSWSDIPSTDSRRLWLGWMSNWQYANDVPTSPWRSATSIPRELKLKAFTEGVRVVQTPVKELETIRGTSKKWKNLTISPASHNVLAGQSGDAYEINAEFKVSPGSAAEFGFKVRTGENQFTKVGYDRRNAKLFVDRSESGNDTFNPAFNTGKETAPLKPVNGKVKLRIFVDRSSVEVFGNDGKQVITDIILPDRSSKGLELYAANGGVKVKSLTIHPLKKVWGTTPFMSNMTGWTTVNGTWADTIEGKQGRSDGDSFILSSASGSDFTYESDITIKDGNGRGAGALMFRSDKDAKNGYLANVDAKHDLVKFFKFENGAASVIAEYKTPIDVNKKYHLKTEAEGDRFKIYLDDRLVIDAHDSVFSEGQFGLNVWDATAVFQNVTKESEGHHHHHH”, the “soluble on expression in E. coli” value was “soluble”.
With “MSLADWQEITGGITAPKGYRAAGITAGLKPSGLPDLALIVSDVEAIASGVFTTSQVKAACVDYCRQRLQAKQSARAILCNAGQANAATGSQGIKDAEESAELLAKELNISPELILLASTGVIGQRIKMDALRNGIPKLIASLTDTGSDAAAGAIITTDLVTKSIALETTIGDRPVRIGGIAKGSGMIHPNMATMLAFVTCDAAVSSHLWQQMLTRAADRSFNSITVDGDTSTNDSLIALANGQSRTPAITEVGAESEKLEAMLTAVCQHLAKAIARDGEGATCLIEVQVTGAHDEQAARQIAKTIAGSSLVKSAIFGRDPNWGRIAAAAGRAGVPFEQENLQIQLGDFLLLDNGQPLPFDRAAASAYLKQAATGAYLQQDTVLISVKVGNGHGTGKAWGCDLSYDYVKINAEYTTEGHHHHHH” the “soluble on expression in E. coli” value was “soluble”.
For “MSLAEINKNEVDIVIGALNADLTQFLTSWRPFFSGFHLIVVKDPELKEELNIPEGFDVDVYSKTDMEKVVGASNSTMFSGYSCRYFGYLVSKKKYIVSIDDDCVPAKDPKGFLVDAVTQHVINLENPATPLFFNTLYDPYCEGADFVRGYPFSLRSGVPCAASCGLWLNLADLDAPTQALKTEKRNTAYVDAVMTVPAKAMLPISGINIAFNRELVGPALVPALRLAGEGKVRWETLEDVWCGMCLKHISDHLGYGVKTGLPYVWRNERGDAVESLRKKWEGMKLMEKSVPFFDSLKLPETALKVEDCVIELAKAVKEQLGSDDPAFTQAADAMVKWVQLWNSVNSSA”, the “soluble on expression in E. coli” value was “soluble”.
With “MSLAEKLPFRVKKHQSKLLKKLGETDMQLQYNKVDNLKIVVSKINGMIIHPGETFSFCKTVGLPTRKKGYKEGMELSFGKPRAGVGGGICQSTNLLHWLALHSPLTITERHHHSIDPFPDNGRVLPWASGAAVFYNYIDFQLTNDTSWAFQINLWLTDKLLEGEIRVNEELDFAYHVKERNHRFIKKEGAYFRTNEIWRHKIAKFRSGALLEEELMYKNYGKVMYVPKTYQEGHHHHHH” the “soluble on expression in E. coli” value was “soluble”.
For “MSLAEQATKSVLFVCLGNICRSPIAEAVFRKLVTDQNISENWVIDSGAVSDWNVGRSPDPRAVSCLRNHGIHTAHKARQITKEDFATFDYILCMDESNLRDLNRKSNQVKTCKAKIELLGSYDPQKQLIIEDPYYGNDSDFETVYQQCVRCCRAFLEKAHEGHHHHHH”, the “soluble on expression in E. coli” value was “soluble”.
In the case of “MSLAEQLAIADLQVDIKQIPLKQPFVTALHRVDAVNAVRVTVRLANGVTGVGTCTPNEKVTGDSLSSARAVIEETIKPLVLGKNLTDWKELLNTVKTSIVHNAPAKAAVEIALYNTRANLFGLTLSQLLGGKGGSVETDYTISIGKAEQMIADAQKMVDQGFKTLKLKLGAGHLKRDIKLVEDLAYAAGPMVHLRLDMNQACDVRQTMQAAEYWHKQGLLIDFIEQPVPAWDLDSMAYLTRHSPYPIMADESVESYEDAQRVLAKNACDYINIKLMKTGGLSEAQKINDLAESRGVPTMVGSMIESIESLAAACAFYRANPNTIFADLDAIFMVDQDPDLNSYAECVGDNIVVREGHHHHHH”, the “soluble on expression in E. coli” value is reported as “soluble”.
With “MSLAFDETRLPDDVERGAQGGPRFKTTVITLSSGFERRNSDWAQTRGEWDVGYGMQDATDLEDVIAFFYARNGRARGFRFKDWTDYVLSRQAIGTTDGSNATFQLFKRYTSGSTSFDRILSKIVTATTQVWVNNVEAPEGGASTSFAIDTTTGMITLGSSLAAQSGTTVEAACQFDVPVRFGSDALDITAEWADAVGAPNIPIVEIRVEGHHHHHH” the “soluble on expression in E. coli” value was “soluble”.
For “MSLAFGNYPFLTVSEITYTNPINSNIVSEDFDVEIGEATNGTVTSRVGIRVKDITRHIGIFGSTGSGKTNTAILLASQLNAKGVKVIILDWHGEYDQLLKNGFRIYDEKTIVKINPLHLIDLDVEDTVDIIGDVLQLTDPQRFLLYTILLKLKSYRKFSINQLLEVINSIEDTSYWMRDVKYALLRKIFILFTPTASKLFSTVDETSLNDFPDYLTSSTIINLGFISNLKLRKLYSLFLIKLIVESYIREGHHHHHH”, the “soluble on expression in E. coli” value was “soluble”.
For “MSLAIIEEARSGQITDEMKEISKLEGIPVEKVRNRISECKIILIRNAKYPSKKLVPIGKGLTTKVNINIGTSDEVVNLQMELEKVKVANRWGDTLMDLSTGGDLDDIRREIIRASELPVGTVPVYQVFIESFKKKSGGAYFTEDELLSTVEKHLKDGVAFMTIHAGITKELAIRALKSNRIIPIVSRGGDMIAGWMIHNNSENPYRKHWGYLLEMFKEYDAVISLGDALRPGATGDAHDEFQVGELLETARLVKSALKEGVQVMVEGPGHVPLNEIAWDVKLMKKLTGGVPYYVLGPLPIDVGAPYDHIASAIGAAISSAAGADLLCYLTPAEHLGLPTVKQVEEGAIAYRIAAHAGDVVKLGRRVRKWDDEVSYYRGKLEWDNMISRLIDPQRAYQVYTQFGIPKVKACTMCGGYCPMMWAMDQVRKIGSSSSLEGHHHHHH”, the “soluble on expression in E. coli” value was “soluble”.
In the case of “MSLAIPTRNEVSDDLKWDLSRVFKDDQEWEQEYNRVAIEIKNLGRFKGNLAKSGQDLYEGITEILSVNRRLEKVYVYATMSSDVDTSNTHYLGLVAKAQSLANQMSAAISFVDPEILSIPEETLAKFMQDEPRLKEYQHRLEQITKKRPHTLPASEEKIIAAAGDAMGTSANTFNVLTNSDMEYGYVQDEDGEMVQLSDGLYSLLIQSQDRNVRKNAFDVMYASYGQFENSLASTLSGEVKAHNFNAQVHKYNSAREAALSENGVPTAVYDTLVKEVNSHLNLLHRYVSLRKKILGLSDLQMYDMYVPLTGEPSLSYNFEEAKNEARRALAPLGKDYLEHVDYIFNNRVIDVVESQNKVTGAYSGGSYDTDPYELLNWEDNLDSLYTLVHETGHSVHSWYTRNTQPYVYGDYPIFVAEIASTTNENILTEYFLDKITDPKTRAFVLNHYLDSFKGTLFRQTQFAEFEQFIHEADANGQPLTADVLDEFYGNLNQRYYGDSVEPGGEIAKEWARIPHFYYNFYVYQYATGFAAATALANNVVHGTDKERTAYINFLKAGSSDYPTEIMKRAGVDMTKADYLKDAFNTFEERLNEFEKIVDELKTEGHHHHHH”, the “soluble on expression in E. coli” value is reported as “soluble”.
In the case of “MSLAKIVFCILDGLGDTTHTLPDGRKGTCLEMAKRPTLDAIAKAGTVGLNDSVSPGYPCGSDTAHLSLFGYPPFTYYNGRGAFEALGGGMDMEPGSIAFKSNFSTMYGECVKYRRCDRHFEVEGPILCKDLDGIKIPEFPEVKVSVVYATEHRCAVKILAPGLSDKIAGTDPIHDDLDLIKSYPLDDSPEAAYTAKVVNALSDTFRKALENHPINIERRKQGKEVANVILLRGPGMRLSCQPFGERHNIKAFLIAPTAIIAGLGISVGLPVIKVKGATGDMDSNFNAKAIAAAQELDGDKYDMGIIHMKGIDDAAHDGKIAVKTELIERADKAIHLLIEKLAELEEKNGDRFIVAVTADHSTSCTWKDHCFEPVPFIVAEVAKVAQELGIKHVDQSKKPELVPTDSVHEFTETAACKGSLGRFCGAQMMNLLFHFAGRKQEEGHHHHHH”, the “soluble on expression in E. coli” value is reported as “soluble”.
With “MSLAKNVNASVEETFKKSGIPVKVDKSNGQVTFGEKTMFDVDSDVLKPEAKEMLKMFVPKYIETIYKDYGDYISKIVIEGHTDDVGSYIYNLDLSQRRAYSVAKFIVGDEIGDYKYKDKVTKHIIAIGRSKAELIKNGDNSVNRDASRRVELKYEININQNKEGHHHHHH” the “soluble on expression in E. coli” value was “soluble”.
